Measurements: article PMC6366636

How the values were obtained:
[1] = target: Cry1Ab toxin of Bacillus thuringiensis subsp. berliner 1715 (trypsin-activated) (Bacillus thuringiensis subsp. berliner 1715) (UniProt P0A370); test: native gel or EMSA
[2] = target: Fluorescently labeled EC12 probe (EC12 A36C/Y44W conjugated with Alexa-488) (Manduca sexta); test: native gel or EMSA

Row | Substance | decrease of the capacity to compete with the EC12 probe, against EC12WT [1] | Kd [2]
1 | EC12_(SQ/AA) (alanine substitution of the serine-glutamine dipeptide in EC12) (domain or fragment) | 50% | 
2 | Cry1Ab toxin of Bacillus thuringiensis subsp. berliner 1715 (trypsin-activated) (from UniProt P0A370 1-1155) (natural protein) |  | 19.5 nM
